Reference: article PMC3338918

Columns and labels:
human VEGFR1-hFc (human) [1] = biological target: human VEGFR1-hFc (human) (UniProt P17948); assay: SPR; Biacore 3000, CM5 chip, 25°C, HBS-T (10 mM Hepes, 150 mM NaCl, 3.4 mM EDTA, 0.05% polysorbate 20, pH 7.4); VEGF Trap or receptor-Fc captured at low density on amine-coupled Protein A, ligands injected (1.0–0.062 nM VEGF-A, 2.5–0.156 nM VEGF-B(10-108), 5.0–0.078 nM PlGF); kd of VEGF-A ligands by the 'fixed kd' procedure on a Biacore 2000 (~2–3 h); KD = kd/ka
[2] = biological target: VEGF Trap (aflibercept) (human); assay: as above
human VEGFR2-hFc (human) = human VEGFR2-hFc (human) (UniProt P35968); assay: as above
[3] = biological target: VEGF Trap (aflibercept) (human); assay: KinExA solution equilibrium assay; KinExA 3000, room temperature (25°C); VEGF Trap (1–50 pM) equilibrated 10–96 h with varying ligand; unbound inhibitor captured on VEGF-A165-coupled Azlactone beads and detected with Cy5 anti-human IgG; one-site homogeneous binding model
human VEGFR1-hFc (human) [4] = biological target: human VEGFR1-hFc (human) (UniProt P17948)
human PlGF-2 (human) [5] = biological target: T1, human PlGF-2 (human) (UniProt P49763)
T1 sequence: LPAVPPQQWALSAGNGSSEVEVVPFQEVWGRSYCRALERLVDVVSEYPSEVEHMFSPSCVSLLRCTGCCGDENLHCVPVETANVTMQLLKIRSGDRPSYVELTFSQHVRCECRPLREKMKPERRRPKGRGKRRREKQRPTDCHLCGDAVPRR

human VEGF-A165 (human) [6] = biological target: human VEGF-A165 (human)
murine PlGF-2 (mouse) [7] = biological target: T2, murine PlGF-2 (mouse) (UniProt P49764)
T2 sequence: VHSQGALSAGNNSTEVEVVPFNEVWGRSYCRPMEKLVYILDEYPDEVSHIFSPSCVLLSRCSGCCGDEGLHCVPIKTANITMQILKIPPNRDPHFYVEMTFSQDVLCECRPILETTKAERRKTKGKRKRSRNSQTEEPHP

human PlGF-2 (human) [8] = biological target: T1, human PlGF-2 (human); remark: listed apart in the source
murine PlGF-2 (mouse) [9] = biological target: T2, murine PlGF-2 (mouse); remark: listed apart in the source
human VEGF-A165 (human) [10] = biological target: human VEGF-A165 (human); remark: listed apart in the source

Sequence of VEGF Trap (aflibercept) (Fc fusion) (chain): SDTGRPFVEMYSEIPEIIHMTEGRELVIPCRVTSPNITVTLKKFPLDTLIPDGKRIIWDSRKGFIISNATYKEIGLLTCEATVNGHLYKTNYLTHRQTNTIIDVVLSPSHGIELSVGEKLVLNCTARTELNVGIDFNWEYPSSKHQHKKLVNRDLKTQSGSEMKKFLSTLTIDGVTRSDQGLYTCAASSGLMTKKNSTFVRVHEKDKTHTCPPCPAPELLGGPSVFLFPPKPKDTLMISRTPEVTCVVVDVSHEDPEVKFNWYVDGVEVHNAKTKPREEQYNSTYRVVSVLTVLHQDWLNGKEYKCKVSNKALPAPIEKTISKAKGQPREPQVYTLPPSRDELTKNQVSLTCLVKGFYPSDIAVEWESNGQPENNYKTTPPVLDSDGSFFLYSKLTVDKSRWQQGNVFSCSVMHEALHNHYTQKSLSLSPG
Sequence of human VEGFR1-hFc (human) (P17948 27-758): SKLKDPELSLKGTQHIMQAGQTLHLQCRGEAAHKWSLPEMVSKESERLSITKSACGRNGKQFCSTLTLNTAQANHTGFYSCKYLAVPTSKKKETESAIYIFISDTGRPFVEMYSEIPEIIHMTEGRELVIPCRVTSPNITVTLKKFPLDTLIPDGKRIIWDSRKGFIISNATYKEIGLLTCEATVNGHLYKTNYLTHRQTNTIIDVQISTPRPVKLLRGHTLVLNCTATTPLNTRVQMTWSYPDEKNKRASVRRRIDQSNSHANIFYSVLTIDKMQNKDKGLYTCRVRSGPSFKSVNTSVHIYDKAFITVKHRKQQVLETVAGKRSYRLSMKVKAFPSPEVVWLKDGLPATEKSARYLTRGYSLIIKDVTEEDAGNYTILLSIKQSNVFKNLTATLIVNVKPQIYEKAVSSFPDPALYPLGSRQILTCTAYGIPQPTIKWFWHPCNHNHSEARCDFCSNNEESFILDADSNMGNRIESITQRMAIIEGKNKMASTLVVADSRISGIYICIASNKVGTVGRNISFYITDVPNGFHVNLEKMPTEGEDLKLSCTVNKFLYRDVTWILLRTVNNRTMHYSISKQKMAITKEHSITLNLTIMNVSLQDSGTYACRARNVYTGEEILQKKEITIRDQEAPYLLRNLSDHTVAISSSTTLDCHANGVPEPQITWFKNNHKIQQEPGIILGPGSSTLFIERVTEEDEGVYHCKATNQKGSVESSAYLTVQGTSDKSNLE
Sequence of human VEGFR2-hFc (human) (P35968 20-764): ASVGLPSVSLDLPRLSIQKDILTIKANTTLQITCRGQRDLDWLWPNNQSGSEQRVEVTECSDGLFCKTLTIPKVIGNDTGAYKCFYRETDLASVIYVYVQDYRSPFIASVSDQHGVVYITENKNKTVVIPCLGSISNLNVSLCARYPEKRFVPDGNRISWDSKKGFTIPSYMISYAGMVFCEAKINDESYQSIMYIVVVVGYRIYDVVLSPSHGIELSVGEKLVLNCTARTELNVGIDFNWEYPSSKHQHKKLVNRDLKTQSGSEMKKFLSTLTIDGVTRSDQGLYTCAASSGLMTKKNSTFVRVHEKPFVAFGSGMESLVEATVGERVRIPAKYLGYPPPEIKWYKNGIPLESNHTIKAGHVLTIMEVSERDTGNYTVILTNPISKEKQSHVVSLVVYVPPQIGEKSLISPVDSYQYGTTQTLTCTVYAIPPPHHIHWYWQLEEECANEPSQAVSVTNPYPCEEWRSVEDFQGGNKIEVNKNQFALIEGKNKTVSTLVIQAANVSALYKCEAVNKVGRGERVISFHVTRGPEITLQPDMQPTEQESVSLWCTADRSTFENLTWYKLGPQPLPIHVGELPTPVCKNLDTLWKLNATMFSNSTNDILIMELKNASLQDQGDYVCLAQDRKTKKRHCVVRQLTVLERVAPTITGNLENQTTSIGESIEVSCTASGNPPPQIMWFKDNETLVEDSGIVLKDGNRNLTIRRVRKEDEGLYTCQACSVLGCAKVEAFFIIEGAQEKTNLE

Row | Kd (human VEGFR1-hFc (human) [1]) [pM] | koff (human VEGFR1-hFc (human) [1]) [s⁻¹] | kon (human VEGFR1-hFc (human) [1]) [M⁻¹ s⁻¹] | Kd [2] [pM] | koff [2] [s⁻¹] | kon [2] [M⁻¹ s⁻¹] | Kd (human VEGFR2-hFc (human)) [pM] | koff (human VEGFR2-hFc (human)) [s⁻¹] | kon (human VEGFR2-hFc (human)) [M⁻¹ s⁻¹] | Kd [3] [pM] | EC50 of luciferase activation in HEK293/VEGFR1 cells (dose response, 0.022 pM to 4.0 nM) (human VEGFR1-hFc (human) [4]) [pM] | IC50 of blocking luciferase activity induced by 40 pM hPlGF-2 in the HEK293/VEGFR1 reporter cell line (blocks hPlGF-2 with VEGFR1) (human PlGF-2 (human) [5]) [pM] | IC50 of blocking luciferase activity induced by 20 pM hVEGF-A121 in the HEK293/VEGFR1 reporter cell line (blocks VEGF-A121 with VEGFR1) (human VEGF-A121 (human)) [pM] | IC50 of blocking luciferase activity induced by 20 pM hVEGF-A165 in the HEK293/VEGFR1 reporter cell line (blocks VEGF-A165 with VEGFR1) (human VEGF-A165 (human) [6]) [pM] | IC50 of blocking luciferase activity induced by 20 pM mPlGF-2 in the HEK293/VEGFR1 reporter cell line (blocks mPlGF-2 with VEGFR1) (murine PlGF-2 (mouse) [7]) [pM] | block of HUVEC migration induced by human PlGF-2 (7.1 nM) by a 100-fold excess of VEGF Trap (modified Boyden chamber) (human PlGF-2 (human) [8]) [%] | block of HUVEC migration induced by mouse PlGF-2 (3.5 nM) by a 100-fold excess of VEGF Trap (modified Boyden chamber) (murine PlGF-2 (mouse) [9]) [%] | reduction of HUVEC migration induced by 130 pM VEGF-A165 (modified Boyden chamber; inhibitor 0.013–13 nM), at a 1:1 molar ratio of VEGF Trap and VEGF-A165 (human VEGF-A165 (human) [10]) [%] | Substance
1 | 9.33 | 0.00028 | 3e+07 | 0.49 | 2.01e-05 | 4.1e+07 | 88.8 | 0.00135 | 1.52e+07 | 0.66 | 17 |  |  |  |  |  |  |  | human VEGF-A165 (ligand)
2 |  |  |  | 1.92 | 6.74e-05 | 3.52e+07 |  |  |  | 17.5 |  |  |  |  |  |  |  |  | human VEGF-B(10-108) (domain or fragment)
3 |  |  |  | 0.36 | 1.35e-05 | 3.75e+07 |  |  |  | 0.18 | 13 |  |  |  |  |  |  |  | human VEGF-A121 (ligand)
4 |  |  |  |  |  |  |  |  |  |  |  | 2890 | 15 | 16 | 104 | 80 | 80 | 90 | VEGF Trap (aflibercept) (Fc fusion)
